The target in experiment [1] is SUVs of NE lipid composition. The experiment can be described thus: microscale thermophoresis (MST). To be noted: value read at the highest lipid concentration, about 1600 µM; n = 3; parent: est. 88; read off a plot.
The target in experiment [2] is SUVs of PM lipid composition. As to the kind of experiment: microscale thermophoresis (MST). The conditions noted are these: value read at the highest lipid concentration, about 1600 µM; n = 3; parent: est. 105; read off a plot. In general terms: MST reads how a fluorescent partner responds to local heating, with and without ligand.

In the case of “AαH peptide (Apq12 58-68, …) L58D; F61R; I62N; F68N”, the results for the response in experiment [1] and in experiment [2] were 50% and 35%, respectively.

The values above are taken from PMC8611336.
